Where a chain is given by its changes, count along the chain named.
T1: C57BL/6 mouse SIRPα stably expressed on CHOK1 cells (C57BL/6 mouse, UniProt P97797 32-513)
T1 construct: whole, on cells; also called CHOK1-C57BL/6 mouse SIRPα
T1 sequence (looked up): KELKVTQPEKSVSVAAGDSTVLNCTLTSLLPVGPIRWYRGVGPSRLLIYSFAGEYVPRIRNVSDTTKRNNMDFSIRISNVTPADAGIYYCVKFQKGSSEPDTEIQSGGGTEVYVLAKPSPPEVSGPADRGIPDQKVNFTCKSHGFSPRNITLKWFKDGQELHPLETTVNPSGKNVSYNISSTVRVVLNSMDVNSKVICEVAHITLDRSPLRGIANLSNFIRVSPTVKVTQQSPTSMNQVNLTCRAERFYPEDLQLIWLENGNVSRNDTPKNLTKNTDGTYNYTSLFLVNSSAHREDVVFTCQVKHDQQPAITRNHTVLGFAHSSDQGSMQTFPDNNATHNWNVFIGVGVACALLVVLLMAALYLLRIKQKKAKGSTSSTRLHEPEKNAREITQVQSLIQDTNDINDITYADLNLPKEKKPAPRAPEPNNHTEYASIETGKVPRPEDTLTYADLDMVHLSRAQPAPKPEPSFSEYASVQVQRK

B1: 015 (antibody, V domains shown)
VH: EVQLQQSGVEVVQPGASVKLSCTASGFNIEAYYMHWVKQRTEQGLEWIGRIDPEDGESKYAPKFQGKATMTADTSSSTAYLQLSSLTSDDTAVYYCVRGSYEYWGQGTTLTVSS
VL: QIVLTQSPAIMSASPGEKVTLTCSASSSVSSSYLYWYQQKPGSSPKLWIYSTSNLASGVPPRFSGSGSGTSYSLTISSMQAEDAASYFCYQWSSYPYTFGGGTKLEIK
notes: Mouse monoclonal hybridoma antibody; also called antibody 015; hybridoma antibody 015
B2: 025 (antibody, V domains shown)
VH: EVQLQQSGAELVKPGASVKLSCTASGFNIKDYYMHWVKQRTEQGLEWIGRIDPEDGETKYAPKFQGKATITADTSSNTAYLQLSSLTSEDTAVYYCDRGLAYWGQGTLVTVSA
VL: B1 VL with P61A, Q80E, Y90H
notes: Mouse monoclonal hybridoma antibody; also called antibody 025; hybridoma antibody 025
B3: 005 (antibody, V domains shown)
VH: EVKLVESGGGLVQPGGSLSLSCAASGFTFTDYYMSWVRQPPGKALEWLGFIKNEANGYTTESSASVKGRFTISRDNSQSILYLQMNALRAEDSATYYCARYDYYGSNYNWYFDAWGTGTTVTVSS
VL: DIVMTQSQKFMSPSVGDRVSITCKASQNVRTAVAWYQQKPGQSPKVLIHLASKRHTGVPDRFTGSGSGTDFTLTISNVQSEDLADYFCLQHWIHPLTFGAGTKLELK
notes: Mouse monoclonal hybridoma antibody purified on Protein A; also called antibody 005; hybridoma antibody 005
B4: 059 (antibody, V domains shown)
VH: QVQLQQSGPELVKPGASVKMSCKASGYTFSEYVLSWVKQRTGQGLEWIGEIYPGTITTYYNEKFKGKATLTADKSSNTAYIQLTSLTSEDSAVYFCGRFYDYDGGWFAYWGQGTLLTVSA
VL: ENVLTQSPEKMAVSLGQKVTMTCSASSSVSSSDLHWYQQKSGASPKPLIHGTSNLASGVPARFSGSGSGTSYSLTISSVEAEDAATYYCQQWSGYPWTFGGGTNLEIK
notes: Mouse monoclonal hybridoma antibody; also called antibody 059; hybridoma antibody 059
B5: 071 (antibody, V domains shown)
VH: QIQLVQSGPELKKPGETVKISCKASGYTFTTYGMSWVKQAPGKGLKWMVWINTYSGVPTYADDFQGRFAFSLETSASTSYLQINNLRNEDTATYFCARDPHYYGTSPAWFAYWGQGTLVTVSA
VL: DIVMTQSQKFMSTTIGDRVIITCKASQIVGIAVAWYQQKPGQSPKLLIYSASNRFTGVPDRFTGSGSGTDFTLTISNMQSEDLADYFCQQYSTYPFTFGSGTKLEIK
notes: Mouse monoclonal hybridoma antibody; also called antibody 071; hybridoma antibody 071
B6: 042 (antibody, V domains shown)
VH: QIQLVQSGPELKKPGETVKISCRASGYTFTTYGMSWVKQAPGKGLRWMGWINTYSGVSTCADDFKGRFAFSLETSATTAYLQIHNLTNEDTATYFCARDPHSYGNSPAWFPYWGQGTLVTVSA
VL: B5 VL with G16R, I20S, I28N, A32S, P40S, F55Y, T93S, F96L, E105A
notes: Mouse monoclonal hybridoma antibody; also called antibody 042; hybridoma antibody 042
B7: 073 (antibody, V domains shown)
VH: B5 VH with Q65K, R87K, T105S, A111V
VL: B5 VL with I20S, K24E, F55Y, D85N, T93A, I106V
notes: Mouse monoclonal hybridoma antibody; also called antibody 073; hybridoma antibody 073
B8: HEFLB (antibody, V domains shown)
VH: EVQLVQSGAEVKKPGESLRISCKASGYSFTSYWVHWVRQMPGKGLEWMGNIDPSDSDTHYSPSFQGHVTLSVDKSISTAYLQLSSLKASDTAMYYCVRGGTGTLAYFAYWGQGTLVTVSS
VL: DVVMTQSPLSLPVTLGQPASISCRSSQSLVHSYGNTYLYWFQQRPGQSPRLLIYRVSNRFSGVPDRFSGSGSGTDFTLKISRVEAEDVGVYYCFQGTHVPYTFGGGTKVEIK

biological target: full length human SIRPα v1 with a small beta-gal fragment (ED) fused to its C-terminal, expressed in K562 … (human, UniProt P78324 31-504); assay: cell-based or functional assay
Sequence (P78324 31-504): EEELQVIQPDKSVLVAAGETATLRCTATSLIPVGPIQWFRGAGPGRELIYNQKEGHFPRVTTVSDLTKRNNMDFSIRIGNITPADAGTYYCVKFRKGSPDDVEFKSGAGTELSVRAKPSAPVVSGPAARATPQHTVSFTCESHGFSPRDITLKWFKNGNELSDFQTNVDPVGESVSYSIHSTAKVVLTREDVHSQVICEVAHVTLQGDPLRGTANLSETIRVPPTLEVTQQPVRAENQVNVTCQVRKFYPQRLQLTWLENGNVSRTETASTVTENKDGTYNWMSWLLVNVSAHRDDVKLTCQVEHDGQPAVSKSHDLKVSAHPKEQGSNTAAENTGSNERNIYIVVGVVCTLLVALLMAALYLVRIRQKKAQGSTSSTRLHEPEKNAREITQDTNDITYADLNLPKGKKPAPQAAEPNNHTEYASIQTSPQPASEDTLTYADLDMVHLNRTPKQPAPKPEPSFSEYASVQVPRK

SHP-1 recruitment (% blocking), Test I	SHP-1 recruitment (% blocking), Test II	Binder
83.6%	89.6%	B1
83.9%	91.2%	B2
71%	82.7%	B3
77.5%	80.2%	B4
77.2%	72.6%	B5
84.8%	76.1%	B6
76.9%	75.9%	B7
46.8%	50.3%	B8

biological target: T2, Fc tagged human SIRPα v1 ECD recombinant protein (human, UniProt P78324 31-370); assay: ELISA, coated Fc tagged human SIRPα v1 ECD
T2 construct: range 1-370; also called hFc tagged human SIRPα v1 ECD; not shown: human IgG Fc (hFc) tag
T2 sequence (P78324 31-370 limits assumed): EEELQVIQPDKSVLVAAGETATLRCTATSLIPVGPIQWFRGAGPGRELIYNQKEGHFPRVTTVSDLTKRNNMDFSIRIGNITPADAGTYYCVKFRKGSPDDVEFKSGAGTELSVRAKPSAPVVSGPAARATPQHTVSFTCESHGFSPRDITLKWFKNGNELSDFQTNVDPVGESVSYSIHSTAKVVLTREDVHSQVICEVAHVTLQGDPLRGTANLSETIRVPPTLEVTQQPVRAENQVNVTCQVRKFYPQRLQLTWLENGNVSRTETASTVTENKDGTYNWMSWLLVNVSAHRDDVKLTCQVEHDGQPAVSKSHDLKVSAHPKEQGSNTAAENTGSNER
Procedure: (§1) Binding specificity of the purified hybridoma antibodies against human SIRPα variants was detected by ELISA assay using recombinant proteins of Fc tagged human SIRPα v1 ECD and human SIRPα v2 ECD. Briefly the antibodies were incubated with ELISA microplate coated antigens at 37° C. for 1 hour. After washing, horseradish peroxidase (HRP) labeled anti-mouse IgG 2nd Ab (Sigma) was added and incubated at 37° C. for 1 hour. Then, 100 μl/well of TMB solution (Biotechnology) was added. After incubation for 15 minutes at room temperature, the reaction was stopped by the addition of 50 ul of 1N HCl. OD 450 nm was read and EC₅₀ was calculated using GraphPad Prism9.0. Other than HEFLB, all antibodies as tested bind to both human SIRPα v1 and human SIRPα v2. HEFLB can only bind to human SIRPα v1 but not human SIRPα v2.

EC50	Binder
0.1 nM	B1
0.04 nM	B2
0.13 nM	B3
0.03 nM	B4
0.03 nM	B5
0.03 nM	B6
0.03 nM	B7
0.17 nM	B8

biological target: T3, human SIRPα v1 ECD recombinant protein (tag not given) (human, UniProt P78324 31-373); assay: competitive ELISA, biotin human SIRPα v1 ECD on coated human CD47 ECD
T3 construct: extracellular domain; also called biotin labeled soluble human SIRPα v1 ECD recombinant protein; ELISA microplate coated human SIRPα v1 ECD
T3 sequence (P78324 31-373): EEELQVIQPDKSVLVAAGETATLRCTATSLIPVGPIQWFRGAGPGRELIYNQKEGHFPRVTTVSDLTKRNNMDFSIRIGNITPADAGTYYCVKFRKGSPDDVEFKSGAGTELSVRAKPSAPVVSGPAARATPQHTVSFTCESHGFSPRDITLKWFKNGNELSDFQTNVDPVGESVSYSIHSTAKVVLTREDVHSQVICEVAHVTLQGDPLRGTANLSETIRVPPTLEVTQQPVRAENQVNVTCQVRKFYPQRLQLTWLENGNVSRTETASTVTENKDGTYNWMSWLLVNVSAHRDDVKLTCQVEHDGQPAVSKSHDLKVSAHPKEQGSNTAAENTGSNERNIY
Procedure: Competitive ELISA assay was used to determine whether the purified hybridoma antibodies can block CD47 and SIRPα interaction. Briefly, antibody and biotin labeled soluble human SIRPα v1 ECD recombinant protein were co-incubated with ELISA microplate coated human CD47 ECD recombinant protein. After washing, HRP labeled streptavidin (HRP-SA, Sigma) was added and incubated at 37° C. for 1 hour. Then, 100 μl/well of TMB solution (Biotechnology) was added. After incubation for 15 minutes at room temperature, the reaction was stopped by the addition of 50 μl of 1N HCl. OD 450 nm was read. The blocking ratios were determined by blockade of biotin labeled human SIRPα v1 ECD recombinant protein binding to ELISA microplate coated human CD47 ECD recombinant protein. Other than 005, all antibodies as tested can block human CD47 and human SIRPα v1 interaction.

IC50	Binder
0.3 nM	B1
0.15 nM	B2
0.12 nM	B4
0.17 nM	B5
0.14 nM	B6
0.16 nM	B7
0.5 nM	B8

biological target: T4, Fc tagged human SIRPα v2 ECD recombinant protein (human); assay: ELISA, coated Fc tagged human SIRPα v2 ECD
T4 construct: range 1-369; also called hFc tagged human SIRPα v2 ECD
Procedure: as §1

EC50	Binder
0.15 nM	B1
0.06 nM	B2
0.12 nM	B3
0.1 nM	B4
0.02 nM	B5
0.03 nM	B6
0.03 nM	B7

biological target: T5, full length human SIRPα v1 stably expressed on CHOK1 or 293F cells (human, UniProt P78324 31-504); assay: competitive FACS, mFc-CD47 ECD on CHOK1-human SIRPα v1 cells
T5 construct: whole, on cells; also called CHOK1-human SIRPα v1; CHOK1-hSIRPα v1
T5 sequence (P78324 31-504): as the sequence (P78324 31-504) above
Procedure: Competitive FACS assay was also set up to further compare the blocking activity of the humanized antibodies and reference antibodies. Briefly antibody and mFc tagged human CD47 ECD recombinant protein were co-incubated with CHOK1 cells stably expressing human SIRPα v1 (FIG. 16A) or human SIRPα v2 (FIG. 16B). After washing, dye labeled anti-mouse Fc 2nd antibody (Sigma) was added and incubated at 37° C. for 1 hour. Fluorescence intensity was detected. Blocking ratio was determined by blockade of human CD47 ECD recombinant protein binding to SIRPα expressed CHOK1 cells. […] In particular, HEFLB doesn't work at all for human SIRPα v2.

IC50	TOP blocking (%)	Binder
0.94 nM	97.6%	B8

biological target: T1, C57BL/6 mouse SIRPα stably expressed on …; assay: FACS, CHOK1-C57BL/6 mouse SIRPα cells, MFI at 100 nM
Procedure: (§2) Species cross reactivity of the purified hybridoma antibodies against human, cyno and mouse SIRPα was determined by FACS assay using CHOK1 cells stably expressing human SIRPα v1, CHOK 1-cyno SIRPα and C57BL/6 mouse SIRPα. Briefly the antibodies were incubated with 2×10⁵ target cells at 4° C. for 1 hour. After washing, fluorescence labeled anti-mouse IgG 2nd antibody (Life Technologies) was added and incubated at 4° C. for 1 hour. Geometric median fluorescence intensity was detected and EC₅₀ was calculated using GraphPad Prism9.0. Other than HEFLB, all antibodies as tested can bind to cyno SIRPα. None of tested antibodies can bind to C57BL/6 mouse SIRPα.

binding result	Binder
no binding (tested: 100 nM)	B1
no binding (tested: 100 nM)	B2
no binding (tested: 100 nM)	B3
no binding (tested: 100 nM)	B4
no binding (tested: 100 nM)	B5
no binding (tested: 100 nM)	B6
no binding (tested: 100 nM)	B7
no binding (tested: 100 nM)	B8

biological target: T5, full length human SIRPα v1 stably …; assay: FACS, CHOK1-human SIRPα v1 cells
Procedure: as §2

EC50	Binder
1 nM	B1
0.9 nM	B2
1.8 nM	B3
0.1 nM	B4
0.2 nM	B5
0.2 nM	B6
0.2 nM	B7
11.2 nM	B8
